In article PMC8611094, “RNA G-quadruplex structures control ribosomal protein production”:

Molecular target: DDX3X (UniProt O00571 1-662)
Test: ELISA; ELISA performed as in Zyner et al. (ref 43); buffer, salt, pH and temperature not given in the material
Conditions: protein: commercial; tags: FLAG; label: 5' biotin; intramolecular G4

Chain of DDX3X (O00571 whole entry): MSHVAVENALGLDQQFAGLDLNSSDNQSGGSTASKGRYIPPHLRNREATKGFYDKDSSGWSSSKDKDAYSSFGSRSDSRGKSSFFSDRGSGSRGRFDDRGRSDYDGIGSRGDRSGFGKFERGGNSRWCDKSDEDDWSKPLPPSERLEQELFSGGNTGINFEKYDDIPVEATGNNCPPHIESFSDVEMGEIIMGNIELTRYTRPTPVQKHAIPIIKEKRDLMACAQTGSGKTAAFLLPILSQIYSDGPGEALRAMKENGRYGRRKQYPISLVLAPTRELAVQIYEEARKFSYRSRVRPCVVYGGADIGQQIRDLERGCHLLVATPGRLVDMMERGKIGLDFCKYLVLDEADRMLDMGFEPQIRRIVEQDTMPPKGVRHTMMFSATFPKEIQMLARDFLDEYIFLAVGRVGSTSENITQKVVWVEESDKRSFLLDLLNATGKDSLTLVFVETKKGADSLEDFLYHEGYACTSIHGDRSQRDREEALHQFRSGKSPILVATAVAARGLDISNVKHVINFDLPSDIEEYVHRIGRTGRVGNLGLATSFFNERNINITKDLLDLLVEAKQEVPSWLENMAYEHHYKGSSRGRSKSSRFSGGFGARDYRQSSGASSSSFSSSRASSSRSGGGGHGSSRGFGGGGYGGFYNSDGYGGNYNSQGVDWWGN

B1: NRAS G4 (structured_RNA)
RNA: UGUGGGAGGGGCGGGUCUGGGUGC
Kd: 0.018 µM
